# Data taken from the RNAGym collection of RNA variant scans (doi:10.7554/elife.80360).
# B1: HDV Ribozyme (parent)
# chain: GGCCGGCAUGGUCCCAGCCUCCUCGCUGGCGCCGGCUGGGCAACAUUCCGAGGGGACCGUCCCCUCGGUAAUGGCGAAUGGGACCCA
# Variants of: B1
# Experiment: self-cleavage, relative activity (ratio to wild type); higher = more cleavage; co-transcriptional
row,Variant,self-cleavage
1,C62U A70G,1.09
2,C22U U72C,0.193
3,U27A G76C,0.943
4,G10A U79G,0.232
5,U9C C64G,0.95
6,C15U C57G,1.06
7,G55C A56U,1.01
8,G1C C75A,0
9,A83G C84U,0.798
10,C24A G35C,0.0692
11,G6U U79G,0.185
12,G17U U20A,0.0378
13,U20G A71C,0
14,C3U G39C,0.0804
15,C64G A87U,0.786
16,C15G A42C,0.0755
17,G5U C57G,0.256
18,C75G A83G,0.153
19,U65A C75A,0.185
20,U23A G28A,0
21,C3U C75A,0.101
22,C21A G53A,0.0791
23,C33G C66A,0.198
24,U46G A87U,0.67

row,Variant,self-cleavage
1,C66U C85U,0.888
2,A70G A71U,0.852
3,A45G G52C,1.01
4,U65C G74C,0.204
5,C49A G59A,0.938
6,G2A G53A,0.168
7,G35A U47A,0.466
8,U37C G50A,1.01
9,U23G A56U,0.759
10,G1C C7G,0.0875
11,A71G G81U,0.291
12,G11U U60C,0.342
13,G25U C64A,0.151
14,A8C G25C,0
15,C3U G11A,0.262
16,C30G C86G,0.0536
17,G29U G76A,0.107
18,U20G C62A,0.312
19,A70G U72G,0.582
20,A45G C57G,1.01
21,G6C C58U,0.394
22,U27G C61G,0.86
23,C58A A78U,0.424
24,G54A G68C,0.173

row,Variant,self-cleavage
1,C18G U79A,0.0615
2,C49G G55C,1.03
3,C15A C63U,0.649
4,C21U G25C,0.119
5,G1C U12G,0.145
6,C21G G55A,0.0941
7,G29A U79G,0.154
8,G35C G76U,0.465
9,G1C G6C,0
10,G29A G59U,0.149
11,U12A U46A,0.361
12,G28C C62A,0.0346
13,G11C A51U,0.426
14,A16G G59A,1.29
15,C4G G29U,0.0292
16,G34C C58A,0.161
17,C3G C30A,0.0639
18,A77C G82C,0.116
19,C21G A78U,0.196
20,U12G G31A,0.0504
21,G52U G82U,0.382
22,A51C C63G,0.322
23,C36A A51U,0.17
24,C7U G80U,0.117

row,Variant,self-cleavage
1,C26U C85A,0.96
2,G35U G52C,0.366
3,G34A C75A,0.107
4,C58G C63U,1.04
5,G2U C33G,0.00889
6,C66G C85A,1.02
7,G11A C66G,0.424
8,G25C U65G,0.0875
9,C62G A77U,0.388
10,G11U C63G,0.248
11,C14U C26G,0.76
12,C19G G31U,0.0723
13,U46C C63U,0.671
14,A16U C41A,0.87
15,C15G C48G,0.739
16,A56U U69G,0.959
17,C36G U37C,0.158
18,G28A A70C,0.0554
19,G29A G50U,0.241
20,C63G C86A,0.95
21,C13U G76A,0.743
22,C15U A51U,1.08
23,U46G C62G,0.0755
24,G68C A78C,0.237

row,Variant,self-cleavage
1,C21G U69G,0
2,C15A C21U,0.0415
3,C61G C62U,0.815
4,A16U A51U,0.914
5,C33G A70G,0.104
6,A8C A16G,0.831
7,U27G G67C,0.653
8,G6U C26U,0.892
9,G25A C33A,0.0863
10,C61G U65C,1.24
11,G17A G53U,0.718
12,G29C A71G,0
13,G38U G82A,0.0886
14,U27C G80A,0.237
15,C14G C26A,0.639
16,C13U A71C,0.639
17,A16U C86U,0.852
18,A56G C86G,1.17
19,C3A U47C,0.422
20,G28C G29C,0.0504
21,A43U C84U,0.151
22,U37A A71U,0.394
23,U27A G55C,0.864
24,G74A A77G,0.332

row,Variant,self-cleavage
1,U23C G73C,0.269
2,A70U C84A,0.969
3,U60G G81U,0.123
4,U23C A87C,0.929
5,C13U G25A,0.122
6,G29U G31A,0.135
7,U23G G74U,0.0863
8,G2C C61G,0.0647
9,C26A A43C,0.665
10,G28U G59U,0.106
11,G29U A78G,0.0378
12,C32G C57A,0.106
13,G40C A56G,0.237
14,U9G C84U,0.831
15,C18G C30A,0.0739
16,G39U U47C,0.393
17,A16C U27C,0.293
18,U20G A45C,0.158
19,C30U C58A,0.697
20,C24U C41G,0.437
21,G5U C15U,0.723
22,C26U U65C,1.07
23,C66G A77C,0.262
24,U12C C13U,0

row,Variant,self-cleavage
1,C30A C66G,0.675
2,A16U A70G,0.855
3,C36G U65C,0.18
4,C15G C30G,0.317
5,C32G U79G,0.172
6,C30G U65C,0
7,U9A A70G,0.918
8,G5C C36U,0.0978
9,C21G C57G,0.0437
10,G10C U37A,0.177
11,A16C G50C,0.959
12,U20A U27C,0
13,G35U G74A,0.058
14,G35C A71U,0.128
15,C21U G80A,0.185
16,C13A G74A,0.101
17,C41U G80C,0.188
18,C14G A16U,0.791
19,G6A G59C,0.587
20,C24G,0.13
21,C19A G82A,0.113
22,A45C G80C,0.0504
23,C24G G81C,0.032
